Numbering of substitutions follows the chain as printed. Names and notes keep the numbering of the source.
B1: His6-tag human thymidylate synthase (HT-hTS), wild type (enzyme, UniProt P04818 1-313, looked up)
chain: MPVAGSELPRRPLPPAAQERDAEPRPPHGELQYLGQIQHILRCGVRKDDRTGTGTLSVFGMQARYSLRDEFPLLTTKRVFWKGVLEELLWFIKGSTNAKELSSKGVKIWDANGSRDFLDSLGFSTREEGDLGPVYGFQWRHFGAEYRDMESDYSGQGVDQLQRVIDTIKTNPDDRRIIMCAWNPRDLPLMALPPCHALCQFYVVNSELSCQLYQRSGDMGLGVPFNIASYALLTYMIAHITGLKPGDFIHTLGDAHIYLNHIEPLKIQLQREPRPFPKLRILRKVEKIDDFKAEDFQIEGYNPHPTIKMEMAV
notes: human thymidylate synthase (TS, EC 2.1.1.45); The non-cleavable N-terminal His6-tag comes from the pQE80L plasmid; also called wild-type hTS; human TS; not shown: His6, N-terminal, kept
B2: His6-tag human thymidylate synthase variant Q62R (HT-hTS Q62R) (enzyme, UniProt P04818 1-313, looked up)
chain: B1 chain with Q62R
modifications: Cys195 modified as S,S-(2-hydroxyethyl)thiocysteine (CME195) in the crystal, by reaction with beta-mercaptoethanol
notes: human thymidylate synthase (TS, EC 2.1.1.45) with Gln62 replaced by arginine; plasmid pQE80L-hTS-Q62R made by site-directed mutagenesis of pQE80L-hTS; Non-cleavable N-terminal His6-tag (twelve residues belong to the tag); in the crystal the first twenty-five N-terminal residues and the tag are not traced; also called Q62R variant; not shown: His6, N-terminal, kept

Key:
[1] = target: the molecule itself; assay: SEC; HiLoad 16/600 Superdex 75pg, last step of purification, sample dialysed in buffer A (50 mM HEPES pH 7.5, 30 mM NaCl); profile not shown
[2] = target: the molecule itself; assay: crystal structure; X-ray, 2.55 A, space group P2(1)22(1), four homodimers (eight subunits) in the asymmetric unit; crystals from 2.0-2.2 M ammonium sulfate, 100 mM bicine pH 9.0, with 20 mM beta-mercaptoethanol, 20 C

Row | Protein | stoichiometry N [1] | binding result [2]
1 | B1 | 2 | –
2 | B2 | – | binds

Reference: article PMC6523895, “Evidence of Destabilization of the Human Thymidylate Synthase (hTS) Dimeric Structure Induced by the Interface Mutation Q62R” (Biomolecules, 2019)
